Measurements from PMC8770391 (Biosensors & Bioelectronics, 2022).
Changes are numbered by the printed parent chain.

B1: detection antibody against the SARS-CoV-2 antigen (antibody, V domains shown)
VH: EVQLVESGGGLVQPGGSLRLSCAASGFTFSTYAMSWVRQAPGKGLEWVSGITGSGGATDYADSVKGRFTISRDNSKNTLYLQMNSLRAEDTAVYYCARINYRAVWGMDYWGQGTLVTVSS
VL: DIQMTQSPSSLSASVGDRVTITCRASQNVSSYLAWYQQKPGKAPKLLIYGASNLASGVPSRFSGSGSGTDFTLTISSLQPEDFATYYCQQGANAPLTFGQGTKVETK
B2: reporter antibody against the SARS-CoV-2 antigen (antibody, V domains shown)
VH: EVQLVESGGGLVQPGGSLRLSCAASGFTFANNAMSWVRQAPGKGLEWVSGINGYDGDTYYADSVKGRFTISRDNSKNTLYLQMNSLRAEDTAVYYCARTYYSYAMDYWGQGTLVTVSS
VL: B1 VL with V29I, G50W, N93Q, A94I, T106I

Biological target: SARS-CoV-2 antigen (nucleocapsid protein) (SARS-CoV-2; strain of the recombinant …, UniProt P0DTC9)
Experiment: ELISA

Binder	Kd [nM]
B1	0.66
B2	0.69
